According to the DeepSol protein solubility set:

Test: soluble on expression in E. coli; label from the status in PepcDB or PDB records

Sequence	soluble on expression in E. coli
MNQPIGIADSSRPKTNVRLTISANNLMDLDVFSKSDPICLIYEKTSGRKATTTEEITVPTWKDKQWTERGRTEVVMNNLNPQFTKTFLLPYFFEETQLLRFEIYDADSPTVGQDLSSHDFLGRFECVLAQIVSYSTLKAHLGKTGQIGAQWRNKDKNTKTGSITIYAEEDEKAEKIQFDVCGEGLDKKDFFGKSDPYLNFKRKFDDGSTHLIHRTEVKPKTLDPRWATVQINTQTLCAKDGDRPIIIECYDHDKWKKGEEPRGDAKFSRDDLIGTAQTTLNELLRGSSDAVEILLTNEKKKAKKGDKYKCSGTLKIWNSRIVIEPTFLDFISGGTQLDFAVAVDFTASNGPPKSSSSLHFMSADRPNQYELALRSVLSICQHYNSSKTFEAFGFGAKLPNQSSVSAIFPLDLQRGTSEVVGITGVMTAYRHALSNVQLYGPTNFAPIIENVARKAQNMIHDSARYQILLIITDGIISDMHATIRSIISASGLPLSIIIIGVGNEDFEKMHELDSDDALLQQDSRIAQRDIVQFVTMREFLNNGQGLYLDPDVIQENLAREVLYEVPAQLTGYMKQRGFQPRPVDDPWRRDSPPPEFDPILDGTGRRAPMLQAPPAGFQYPVYADTSIASAPPMY	not soluble
MNQPLAGYAPAPAGARMENHGNHMLKVAMQTGNDLLARVGSMTAYEGFVQYEPNPPAVRQIAKDWMTGEGAPLMKCSGDGLLYLADYGANVVVINLNGDGISVNATNLLAFDAHLTWGVERVKGLAKFAGQGLWNTKISGQGWVALTSRGKPIVVDCGGGEDETYVDPDALVAWSPNLKVKGKRSFKAQSLIGRGSGEAFQMAFSGQGIVVVQPSEDSTDRLRVRGLEHHHHHH	not soluble
MNQTKTTTDDNKNSKPAETESTITVPEWITETINGGSFCHVDLETGTNGWASPPGNVFSLRSHNYFTATKQKSPGGDYLLSLAAVDWLKSTTKKLDHILSRPDNRVIHAFKTSQSRSFIFAVNFQVPGKEHYNLVFYFATQKPIPSDSLLHKFINTDEDSFRNERFKIVSNVVKGPWVVKAAAGKFGAFVAGKAMKCTYYRGDNYFEVDVDISSSAIMTALIRFMLGYVTYLMVDIGFVVEAQTAEELPERLIGGARICHMELSSSFLVDDDEKKSLQPRRRMMGAAEDNDDEI	soluble
MNQWDQFLTPYKQAVDELKVKLKGMRKQYEVGEQASPIEFVTGRVKPIASIIDKANKRQIPFDRLREEMYDIAGLRMMCQFVEDIDVVVNILRQRKDFKVIEERDYIRNTKESGYRSYHVIIEYPIETLQGQKFILAEIQIRTLAMNFWATIEHTLRYKYDGAYPDEIQHRLERAAEAAYLLDEEMSEIKDEIQEAQKYYTQKRSKKHEND	not soluble
MNRIKSTLTALLLAGSFQASAADQTILNSSYDIARELFVAYNPVFAEHWQQKTGKTVEIKQSHAGSSAQARSILQGLAADVVTFNQVTDVQILHDKGKLIPANWQTLLPNASSPYYSTTAFLVRKGNPKNIQDWSDLVRDDVKSVFPNPKTSGNARYTYLAALGFAQKQFGQDNQVQQDEFLKKFLANVAVFDTGGRGATTSFVERGIGDVLITFESEVNNIRQQYGADDYQVVVPKTSILAEFPVAVVEKVAKRNGTYDVATEYVSYLYSEPAQRLLAEFNYRVHDAKVQAEFAERFPAVELLTVEGIAGGWEQAMQTQFANGAKLDQLLRR	not soluble
MNRISFNSFSNMHSLLSSKFQEHYNDIYDWNGNIENIYKANTFISIGYKLLYPLGVLEANFDKEKLKKFLFRICSYYNDIPYHTSLHAAQVAHFSKSMLFMLDMNHKISAIDEFCLHISSLCHDTGHPGLNNYFLINSENNLALTYNDNSVLENYHCSLLFKTLKNPNYNIFEHYPYHIFISCKKNIIKAILSTDMKNHFEYISDFRTSKEFIDYDNLSNDQIWQIFCLILKASDIGHSTLEWNKHLEWTLKINEEFYLQGLLEKSLNIQNSFLCDINTMNKLALSQIDFLKHLCIPLFNELNYICKNNDVYTHCIQPIENNIERWESHKND	soluble
MNRTLYTVLFHLGLPLVALRLWLRARKAPAYRQRIGERFASGLPAMQRDGIWVHAVSVGESIAAAPMIRALLVQYPQLPITVTCMTPTGSERIKALFANEPRIQYCYLPYDLPWAAGRFLDHVQPQLGIIMETELWPNHIHQCAKRAIPVVLANARLSERSARGYARFARLTQPMLAEMAWFAVQTEVEAQRFRDLGARAECVVVTGSIKFDLNIDPQLLERAAQLREQWQATQRPVWIAASTHAGEDESVLSAHRTLLASHPDALLILVPRHPERFDSVHALCQQQGFKTVRRSSAQAVTPDVAVLMGDTMGELLFLYALVDIAFVGGSLVPNGGHNLLEPAALAKPVLSGPHLFNFLEIAAMLRTAGALQEVSDATALATAVQRLIDQPQQARSMADAGLAVMKANQGALQRLLDGIERLMAKRRVAEDAERPERHAHAERRHDSAAALEHHHHHH	not soluble
MNSDPTRERILHGLITLYILKELVKRPMHGYELQKSMFETTGQALPQGSIYILLKTMKERGFVISESSVNEKGQQLTVYHITDAGKKFLCDHSQALQLARKIIDDLLSTVDIIENRN	soluble
MNSILSLIGRDTELFHQDINANEKELQSVVSQSRFLVLGGAGSIGQAVTKEIFKRNPQKLHVVDISENNMVELVRDIRSSFGYINGDFQTFALDIGSIEYDAFIKADGQYDYVLNLSALKHVRSEKDPFTLMRMIDVNVFNTDKTIQQSIDAGAKKYFCVSTDKAANPVNMMGASKRIMEMFLMRKSEEIAISTARFANVAFSDGSLLHGFNQRIQKNQPIVAPNDIKRYFVTPQESGELCLMSCIFGENRDIFFPKLSEALHLISFADIAVKYLKQLGYEPHLCESEDEARELAKTLPAQGKWPCLFTSSDTTGEKDFEEFFTDKETLDMARFDNLGIIKNDSLYQQELLELFEQKIGQMKTDRQWTKEEIVQLFFIMIPDFGHKETGKYLDSKM	soluble
MNSITVDFLNDQVFQGPMDGTEDKKDGNPKKSTCEKHWAVIDQHNVAICVQLCSFVEGEEKKCAEYYSDKVGGVLKFGRYSLKTIDVKTDLKEFTDKKGFTLYTVEITNSKKKDAPKKTVDILYFSGWPDHGAPQEAYPALEMLKFCESYKKNVLVHCSAGVGRTGTLVAIKYGIELCLKKKVI	not soluble
MNSIVNGLYTFMSTTVVPAVTEQAANLVGGASALAEGATQALTQISQTALEWGSGSEDATASSEVFSWEQQGAAAASSDLQEDKKETTEDVHQEAIGASSPNTSIEWEVIHENPDETGPIRHNQFEMVQNNYEWMKNSK	soluble
MNSKKVLFIIFICALTVTGCDTQEQTTIDSGLTLIRATQTLDSLYANYSVSGTCLLRENYPSNVGNYTATYLASEEQKEIPNQYSYLWPYSGTFSAVNALCAATGDESYKTLLDNKVLRGLEKYLDISRSPAGYASYINTASQSDRFYDDNIWLGIDFTDAYLNTKEEKYLKKAQLIWKFIESGADDKLGGGIYWCEQKKVSKNTCSNAPASVFALKMFKAIRDSSYLIKGQELYEWTKKRLQDSTDYLYFDNISLDGKIDKSKYAYNSGQMMQAATLLYQLTGRSHFLKDAQNIAKACYNYFFINFIPEEGEPFKLLKKGDVWFTAVMLRGFIELYQTDHNKTYINSFNQNMDYAWEHVRDEKGLFDIDFSGRTHDDRKWLLTQAAMVEMYARLAVTKLEHHHHHH	not soluble
MNSQQDLTMHNRSAAILLRPAAALYGMVMSLRNCLYDQGIFKSWHSPIPVVSVGNITTGGTGKTPLVDWIVKFYEASGIATAIVSRGYGRRTKGVQLVSDGGRLLLGSRDAGDETAMLAARNPRTIVVVAEKRVEGVQFLMHQFADRLPGVIVLDDAFQHRKIARDLDIVVVNAGAPEEIDAMLPAGRLREPLRGLRRAHLIILGKITDDANSATLLQTLRETGKPVIRSKIKPGKLIHVDGSENETNESVKTLAFAGIGAPEGFLHSLKTAGIKIAATKFFRDHEPYTESAIRSIIGEAKRQGLVPVTTEKDWFRIADEPELAEMLRQVGCRYLTITPEFPDGTQELERQLLDVLKRLEHHHHHH	not soluble
MNSTFIVNFVGKATPATIKQLAAVTHENGGKWLISKVNFIEDSVAAVIKIELPADNASTVKQAFQTYPSLLVEITDADPHVHKSDAVYKVRLDANDRAGIVNEITHLLDGQGISILDMDCQRVFIAGGGGISSSLFTANVAMRLPVNIEIDDVINELEALSEDTRVTLEA	not soluble
MNSTHHYEQLIEIFNSCFADDFNTRLIKGDDEPIYLPADAEVPYNRIVFAHGFYASAIHEISHWCIAGKARRELVDFGYWYCPDGRDAQTQSQFEDVEVKPQALDWLFCVAAGYPFNVSCDNLEGDFEPDRVVFQRRVHAQVMDYLTNGIPERPARFIKALQNYYHTPELTAEQFPWPEALN	not soluble
MNSVGFYGKLAGRGDFVSRGLPNTFVEPWDAWLASGMRASQDELGAAWLDAYLTSPLWRFAIAPGLLGGEAVTGVVMPSIDRVGRYFPLTVACLLPANADLGGLVGGDDGWFEQVESLLLSTLEPEAEVEAFEQAVAQLPAPPCGPRIEQSLISGNLLRSEAVTPAQRLAALAQHACDGASHWWGRGSARISAGLMRYQGLPPAPAFGRFLTGEGEVIPLFPGIPG	soluble
MNTILAQQIANEGGVEAWMIAQQHKSLLRFLTCGSVDDGKSTLIGRLLHDTLQIYEDQLSSLHNDSKRHGTQGEKLDLALLVDGLQAEREQGITIDVAYRYFSTERRKFIIADTPGHEQYTRNMATGASTCDLAILLIDARKGVLDQTRRHSFISTLLGIKHLVVAINKMDLVDYREETFARIREDYLTFAEQLPGDLDIRFVPLSALEGDNVAAQSANMRWYSGPTLLEVLETVDIQRAVDRQPMRFPVQYVNRPNLDFRGYAGTLASGSVKVGERIKVLPSGVESSVARIVTFDGDKEEACAGEAITLVLNDDIDISRGDLLLAANETLAPARHAAIDVVWMAEQPLAPGQSYDVKLAGKKTRARIEAIRYQIDINNLTQRDVESLPLNGIGLVEMTFDEPLALDIYQQNPVTGGLIFIDRLSNVTVGAGMVRELDERGATPPVEYSAFELELNALVRRHFPHWDARDLLGDKHGAA	not soluble
MNTKARKYIPLTEATYYILLSLVKPMHGYGIMQLVEEMTNGEVKLGPGTLYGNTTKLLKEKLIVEVASTDRKKCYELTPFGKEVLELEYNRLQRSVRNGNSILGE	soluble
MNTLFMHCRPGFEGEVCSEIADLAARLDVSGYAKARPDTACAEFICTEADGAERLMNGQRFDTLIFPRQWARGLFLDLPETDRISVILAQLSTFPTCGSLWLEVVDTNDGKELSNFCKKFEAPLRKALTQAGKLVDDPRKPRLLLTFKSGREVFLGLAEADNSAMWPMGIPRLKFPREAPSRSTLKLEEAWHHFIPRDQWDERLSGDMTGVDLGAAPGGWTYQLVRRGMLVTAIDNGPMAESLMDTGLVQHLMADGFTYKPRHPVDWMVCDIVEKPARNAALLETWLGEGLCREAVVNLKLPMKQRYAEVRRLLDRIEEGFQARGVRVSIGCKQLYHDREEVTCHLRRLDVAKAARK	not soluble
MNTLYTLFATCPRGLETVLSQELESLGCTDVQVFDGGVSCRGGLEQVYAANLHSRTASRILLRLTKGTYRNERDIYKLAKNINWFNWFTLQQTFKVKVEAKRANVKSIQFVGLTVKDAVCDAFRDIYDARPSVDKAAPDVRIHAFLNERNVEIFIDTSGEALFKRGYRLDTGEAPLRENLAAGLLLSAGYDGTQPFQDPFCGSGTIAIEAAWIAARRAPGMMRRFGFEKLQNFDKTLWSDLRRRAEAQTRPVRAPIAGSDNDRRIVQTALDNARRAGVDDIVSFSVADAQSVRPNGENGIMVSNPPYGVRLEEVRALQALYPQLGTWLKKHYAGWLAAMFTGDREMPKFMCLSPKRKIPLYNGNIDCRLFLIDMVEGSNR	not soluble
